Measurements as given in PMC9482650, “Quantitative fragmentomics allow affinity mapping of interactomes” (Nature Communications, 2022).

How the values were obtained:
Test in all cases: holdup assay
Set-up in all cases: key: below the threshold = too weak to quantify, mostly under pKd 3.1 to 4
[1] = target: AHNAK1, Q09666
[2] = target: T1, PDZD2_2, O15018
T1 sequence (O15018 329-429, limits assumed, looked up): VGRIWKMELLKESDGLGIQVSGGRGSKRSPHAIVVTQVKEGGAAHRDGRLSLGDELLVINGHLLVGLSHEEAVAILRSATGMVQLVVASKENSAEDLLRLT

[3] = target: LNX1_3, Q8TBB1
Sequence of LNX1_3, Q8TBB1 (Q8TBB1 500-596): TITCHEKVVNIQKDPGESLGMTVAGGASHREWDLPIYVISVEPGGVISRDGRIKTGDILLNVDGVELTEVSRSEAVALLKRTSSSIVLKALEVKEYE

[4] = target: T2, DFNB31_2, Q9P202
T2 sequence (Q9P202 274-371, limits assumed, looked up): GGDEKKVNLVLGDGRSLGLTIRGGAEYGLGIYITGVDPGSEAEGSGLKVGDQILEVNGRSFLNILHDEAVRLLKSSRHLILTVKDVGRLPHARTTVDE

[5] = target: T3, GRIP1_4, Q9Y3R0
T3 sequence (Q9Y3R0 467-571, limits assumed, looked up): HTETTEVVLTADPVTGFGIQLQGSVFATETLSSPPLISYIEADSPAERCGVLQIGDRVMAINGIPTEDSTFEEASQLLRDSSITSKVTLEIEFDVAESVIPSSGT

[6] = target: FRMPD2_3, Q68DX3
Sequence of FRMPD2_3, Q68DX3 (Q68DX3 1073-1166): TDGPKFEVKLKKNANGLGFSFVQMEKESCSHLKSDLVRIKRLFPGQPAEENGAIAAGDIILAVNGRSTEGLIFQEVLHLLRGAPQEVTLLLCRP

[7] = target: HTRA2, O43464
Sequence of HTRA2, O43464 (O43464 355-458): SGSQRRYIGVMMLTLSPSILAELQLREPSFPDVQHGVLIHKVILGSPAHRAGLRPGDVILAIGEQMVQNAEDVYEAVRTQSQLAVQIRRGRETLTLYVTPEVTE

[8] = target: Inadl_3, Q8NI35
Sequence of Inadl_3, Q8NI35 (Q8NI35 359-469): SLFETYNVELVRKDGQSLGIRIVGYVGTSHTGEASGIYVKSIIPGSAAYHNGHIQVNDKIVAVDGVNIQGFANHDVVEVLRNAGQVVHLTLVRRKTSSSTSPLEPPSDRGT

[9] = target: Inadl_2, Q8NI35
Sequence of Inadl_2, Q8NI35 (Q8NI35 238-335): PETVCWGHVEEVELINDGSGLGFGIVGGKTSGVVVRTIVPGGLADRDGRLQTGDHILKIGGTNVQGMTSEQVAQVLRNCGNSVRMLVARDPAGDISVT

[10] = target: T4, APBA1_1, Q02410
T4 sequence (Q02410 651-752, limits assumed, looked up): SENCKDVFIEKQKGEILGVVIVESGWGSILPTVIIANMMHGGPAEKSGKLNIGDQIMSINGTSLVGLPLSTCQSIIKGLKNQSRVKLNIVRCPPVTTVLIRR

[11] = target: MAGI3_2, Q5TCQ9
Sequence of MAGI3_2, Q5TCQ9 (Q5TCQ9 398-503): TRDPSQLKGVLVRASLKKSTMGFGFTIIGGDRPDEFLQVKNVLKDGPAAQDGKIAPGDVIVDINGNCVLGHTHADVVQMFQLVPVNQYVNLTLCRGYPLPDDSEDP

[12] = target: LNX1_2, Q8TBB1
Sequence of LNX1_2, Q8TBB1 (Q8TBB1 371-470): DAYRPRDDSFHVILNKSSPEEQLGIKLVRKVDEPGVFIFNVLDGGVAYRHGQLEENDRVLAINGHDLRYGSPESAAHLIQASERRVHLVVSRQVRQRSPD

[13] = target: DLG1_3, Q12959
Sequence of DLG1_3, Q12959 (Q12959 457-571): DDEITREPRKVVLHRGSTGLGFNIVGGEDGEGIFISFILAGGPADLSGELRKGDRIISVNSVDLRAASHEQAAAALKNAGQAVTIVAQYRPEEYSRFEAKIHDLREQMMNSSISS

[14] = target: T5, GRIP1_7, Q9Y3R0
T5 sequence (Q9Y3R0 999-1096, limits assumed, looked up): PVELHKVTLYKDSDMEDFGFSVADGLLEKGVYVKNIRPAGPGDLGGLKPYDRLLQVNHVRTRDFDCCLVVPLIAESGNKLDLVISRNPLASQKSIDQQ

[15] = target: T6, RADIL, Q96JH8
T6 sequence (Q96JH8 971-1071, limits assumed, looked up): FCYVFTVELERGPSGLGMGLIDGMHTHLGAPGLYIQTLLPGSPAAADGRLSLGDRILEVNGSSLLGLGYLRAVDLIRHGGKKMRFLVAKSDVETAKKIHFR

[16] = target: T7, DLG3_3, Q92796
T7 sequence (Q92796 374-475, limits assumed, looked up): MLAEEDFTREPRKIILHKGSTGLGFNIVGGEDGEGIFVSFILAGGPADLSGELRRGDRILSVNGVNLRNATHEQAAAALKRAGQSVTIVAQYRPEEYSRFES

[17] = target: SCRIB_2, Q14160
Sequence of SCRIB_2, Q14160 (Q14160 857-960): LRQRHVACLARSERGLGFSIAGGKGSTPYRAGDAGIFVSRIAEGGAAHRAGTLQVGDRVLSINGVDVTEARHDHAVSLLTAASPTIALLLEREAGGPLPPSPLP

[18] = target: T8, NHERF3_4, Q5T2W1
T8 sequence (Q5T2W1 373-468, limits assumed, looked up): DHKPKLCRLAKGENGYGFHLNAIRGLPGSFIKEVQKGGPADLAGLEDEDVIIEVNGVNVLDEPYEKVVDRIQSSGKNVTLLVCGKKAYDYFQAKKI

[19] = target: DLG1_2, Q12959
Sequence of DLG1_2, Q12959 (Q12959 314-412): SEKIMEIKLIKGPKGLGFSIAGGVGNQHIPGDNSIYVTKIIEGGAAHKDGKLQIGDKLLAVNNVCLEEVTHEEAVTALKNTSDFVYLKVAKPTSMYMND

[20] = target: TJP1_3, Q07157
Sequence of TJP1_3, Q07157 (Q07157 416-512): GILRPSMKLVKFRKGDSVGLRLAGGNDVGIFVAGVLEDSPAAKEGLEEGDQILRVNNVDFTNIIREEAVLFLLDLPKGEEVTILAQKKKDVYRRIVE

[21] = target: SNX27, Q96L92
[22] = target: TJP1_2, Q07157
Sequence of TJP1_2, Q07157 (Q07157 181-274): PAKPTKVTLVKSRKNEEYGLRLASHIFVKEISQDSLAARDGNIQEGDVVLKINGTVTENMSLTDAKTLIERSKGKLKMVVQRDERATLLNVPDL

[23] = target: Inadl_5, Q8NI35
Sequence of Inadl_5, Q8NI35 (Q8NI35 673-780): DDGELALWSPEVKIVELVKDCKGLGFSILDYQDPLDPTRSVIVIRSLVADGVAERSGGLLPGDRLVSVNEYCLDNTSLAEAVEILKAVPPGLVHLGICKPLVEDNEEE

[24] = target: T9, SNTG2, Q9NY99
T9 sequence (Q9NY99 68-166, limits assumed, looked up): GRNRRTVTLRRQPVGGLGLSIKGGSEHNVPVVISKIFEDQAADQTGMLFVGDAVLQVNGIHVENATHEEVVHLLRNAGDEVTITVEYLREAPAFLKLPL

[25] = target: T10, MPP7, Q5T2T1
T10 sequence (Q5T2T1 134-230, limits assumed, looked up): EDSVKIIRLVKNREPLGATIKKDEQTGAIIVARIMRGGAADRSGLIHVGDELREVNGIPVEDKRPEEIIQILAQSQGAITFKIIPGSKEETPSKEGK

[26] = target: T11, APBA1_2, Q02410
T11 sequence (Q02410 742-832, limits assumed, looked up): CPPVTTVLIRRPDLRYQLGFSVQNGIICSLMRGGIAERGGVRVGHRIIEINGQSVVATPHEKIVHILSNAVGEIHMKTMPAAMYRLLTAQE

[27] = target: Inadl_6, Q8NI35
Sequence of Inadl_6, Q8NI35 (Q8NI35 1058-1167): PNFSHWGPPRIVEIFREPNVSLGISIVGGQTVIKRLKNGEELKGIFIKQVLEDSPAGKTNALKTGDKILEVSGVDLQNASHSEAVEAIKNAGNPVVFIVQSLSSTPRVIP

[28] = plain residues with an end cap or a label only (N-terminal biotin on a linker: ado-ado)
[29] = modified: phospho on T at position -2 from the C-terminal residue
[30] = modified: phospho on T at position -1 from the C-terminal residue

Measured: pKd

Sequence of AHNAK1, Q09666 (Q09666 4-100): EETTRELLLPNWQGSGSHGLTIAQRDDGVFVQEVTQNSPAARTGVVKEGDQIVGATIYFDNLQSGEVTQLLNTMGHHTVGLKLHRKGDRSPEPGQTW

LEPAVRSSEL [SH2D3C, Q8N5H7]
below the threshold: [1]; [28] | [3]; [28] | [4]; [28] | [5]; [28] | [6]; [28] | [7]; [28] | [8]; [28] | [9]; [28] | [10]; [28] | [11]; [28] | [12]; [28] | [13]; [28] | [14]; [28] | [15]; [28] | [16]; [28] | [17]; [28] | [20]; [28] | [22]; [28] | [23]; [28] | [24]; [28] | [25]; [28] | [26]; [28] | [27]; [28]
4.29: [19]; [28]
3.97: [2]; [28]
4.26: [18]; [28]
4.68: [21]; [28]

DQPLEKSTKL [AKAP10, O43572]
5.69: [18]; [28]
4.23: [2]; [28]
below the threshold: [1]; [28] | [3]; [28] | [4]; [28] | [5]; [28] | [6]; [28] | [7]; [28] | [8]; [28] | [9]; [28] | [10]; [28] | [11]; [28] | [12]; [28] | [13]; [28] | [14]; [28] | [15]; [28] | [16]; [28] | [17]; [28] | [19]; [28] | [20]; [28] | [22]; [28] | [23]; [28] | [25]; [28] | [26]; [28] | [27]; [28]
3.64: [24]; [28]
5.08: [21]; [28]

GQSVDLVFPV [AKIP1, Q9NQ31]
3.54: [7]; [28]
3.85: [26]; [28]
3.51: [9]; [28]
3.84: [21]; [28]
below the threshold: [1]; [28] | [2]; [28] | [4]; [28] | [5]; [28] | [6]; [28] | [8]; [28] | [10]; [28] | [11]; [28] | [13]; [28] | [14]; [28] | [16]; [28] | [17]; [28] | [18]; [28] | [19]; [28] | [20]; [28] | [22]; [28] | [23]; [28] | [24]; [28] | [25]; [28] | [27]; [28]
3.75: [12]; [28]
3.96: [3]; [28]
3.97: [15]; [28]

RRVRKLPSTTL [RPS6KA1_-2P, Q15418]
below the threshold: [1]; [29] | [2]; [29] | [3]; [29] | [4]; [29] | [5]; [29] | [6]; [29] | [7]; [29] | [8]; [29] | [9]; [29] | [10]; [29] | [11]; [29] | [12]; [29] | [13]; [29] | [15]; [29] | [16]; [29] | [17]; [29] | [18]; [29] | [19]; [29] | [20]; [29] | [21]; [29] | [22]; [29] | [23]; [29] | [24]; [29] | [25]; [29] | [26]; [29] | [27]; [29]
3.63: [14]; [29]

RRVRKLPSTTL [RPS6KA1_-1P, Q15418]
below the threshold: [4]; [30] | [6]; [30] | [12]; [30] | [20]; [30] | [22]; [30] | [23]; [30] | [26]; [30]
3.63: [16]; [30]
4.16: [24]; [30]
3.39: [3]; [30]
3.83: [19]; [30]
3.56: [10]; [30]
3.49: [7]; [30]
4.04: [2]; [30]
3.61: [17]; [30]
3.36: [5]; [30]
3.35: [25]; [30]
3.7: [13]; [30]
3.52: [1]; [30] | [15]; [30] | [27]; [30]
3.94: [11]; [30]
3.45: [9]; [30]
3.76: [8]; [30]
3.48: [14]; [30]
3.92: [21]; [30]
3.75: [18]; [30]
